Measurements from patent US20090149381.

human recombinant MMP-9, sequence (chain, as listed by the source): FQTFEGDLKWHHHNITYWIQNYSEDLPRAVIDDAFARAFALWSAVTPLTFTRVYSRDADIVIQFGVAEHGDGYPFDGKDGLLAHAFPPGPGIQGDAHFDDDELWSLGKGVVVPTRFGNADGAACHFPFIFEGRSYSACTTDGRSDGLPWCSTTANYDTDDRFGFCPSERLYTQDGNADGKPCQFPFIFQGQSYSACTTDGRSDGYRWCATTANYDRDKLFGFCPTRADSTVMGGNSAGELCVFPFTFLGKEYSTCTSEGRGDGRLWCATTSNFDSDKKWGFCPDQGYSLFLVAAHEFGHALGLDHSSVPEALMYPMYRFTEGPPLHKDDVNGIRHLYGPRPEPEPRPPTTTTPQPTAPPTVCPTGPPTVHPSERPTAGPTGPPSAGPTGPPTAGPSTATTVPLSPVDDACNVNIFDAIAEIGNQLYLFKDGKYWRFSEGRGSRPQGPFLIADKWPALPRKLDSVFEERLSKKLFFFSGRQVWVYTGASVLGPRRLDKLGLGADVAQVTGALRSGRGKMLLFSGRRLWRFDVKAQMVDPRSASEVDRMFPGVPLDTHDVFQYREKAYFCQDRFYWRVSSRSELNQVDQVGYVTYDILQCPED

Each substance was assayed against human recombinant PEDF (pigment epithelium-derived factor) (UniProt P36955).
human recombinant PEDF (pigment epithelium-derived factor), sequence (P36955 20-418): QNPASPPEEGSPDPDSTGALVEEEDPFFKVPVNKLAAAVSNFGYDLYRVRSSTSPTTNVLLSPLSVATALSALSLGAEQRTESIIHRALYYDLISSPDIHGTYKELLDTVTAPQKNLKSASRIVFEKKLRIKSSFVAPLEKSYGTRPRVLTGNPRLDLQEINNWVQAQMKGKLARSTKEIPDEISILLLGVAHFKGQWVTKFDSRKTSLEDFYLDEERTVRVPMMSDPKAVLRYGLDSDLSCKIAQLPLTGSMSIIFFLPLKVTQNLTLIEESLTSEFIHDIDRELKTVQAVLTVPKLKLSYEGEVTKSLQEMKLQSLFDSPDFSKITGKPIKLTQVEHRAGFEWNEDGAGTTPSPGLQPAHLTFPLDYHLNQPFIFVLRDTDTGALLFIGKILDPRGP
With human recombinant MMP-9 the “PEDF fragments observed by SDS-PAGE after protease treatment” value (“PEDF fragments observed by SDS-PAGE” below) was “resulted in the generation of multiple PEDF fragments that were observed by SDS-PAGE. These fragments had estimated relative molecular weights of 44 and 42 KDa”.
In the case of MMP-7, the “PEDF fragments observed by SDS-PAGE” value is reported as “resulted in the generation of multiple PEDF fragments that were observed by SDS-PAGE. These fragments had estimated relative molecular weights of 44 and 42 KDa”.
activated MMP-2 was tested, and the “PEDF fragments observed by SDS-PAGE” value was “resulted in the generation of multiple PEDF fragments that were observed by SDS-PAGE. These fragments had estimated relative molecular weights of 44 and 42 KDa”.
